From patent publication US20230256106A1, “DRUG DELIVERY SYSTEM FOR LOCALLY DELIVERING THERAPEUTIC AGENTS AND USES THEREOF” (priority 2020, published 2023)

Format: physicochemical
Conditions: about 2.5±1.0 mg/mL conjugate in 10 mM PBS buffer (pH=7.4), 37° C., shaker 100 rpm; […]; average release of free drug per day

| Substance | Release rate (%/day) |
| --- | --- |
| conjugate of N-(4-(aminomethyl)phenyl)-4-(((3R,4R)-1-(2-cyanoacetyl)-4-methylpiperidin-3-yl)(methyl)amino)-7H-pyrrolo[2,3-d]pyrimidine-7-carbothioamide and HA [Example 23] | 1.01 |

Same assay, conditions: about 2.5±1.0 mg/mL conjugate in 10 mM PBS buffer (pH=7.4), 37° C., shaker 100 rpm; daily ultrafiltration (30 k), free drug by HPLC; average release of free drug per day

| Substance | Release rate (%/day) |
| --- | --- |
| conjugate between HA (Sodium hyaluronate) and [4-[[(3R,4R)-1-(2-cyanoacetyl)-4-methyl-3-piperidyl]-methyl-amino]pyrrolo[2,3-d]pyrimidin-7-yl]methyl 2-aminoacetate [Example 68] | 10.81 |
| conjugate between HA (Sodium hyaluronate) and [4-[[(3R,4R)-1-(2-cyanoacetyl)-4-methyl-3-piperidyl]-methyl-amino]pyrrolo[2,3-d]pyrimidin-7-yl]methyl 4-aminobutanoate [Example 69] | 16.47 |
| conjugate of 2-azaspiro[3.3]heptan-6-yl-4-(((3R,4R)-1-(2-cyanoacetyl)-4-methylpiperidin-3-yl)(methyl)amino)-7H-pyrrolo[2,3-d]pyrimidine-7-carboxylate and HA [Example 73] | 1.90 |
| conjugate of 2-chloroethyl 4-[[(3R,4R)-1-(2-cyanoacetyl)-4-methyl-3-piperidyl]-methyl-amino]pyrrolo[2,3-d]pyrimidine-7-carboxylate and HA [Example 57] | 9.28 |
| conjugate of 3-((3R,4R)-3-((7-(6-amino-2-azaspiro[3.3]heptane-2-carbonyl)-7H-pyrrolo[2,3-d]pyrimidin-4-yl)(methyl)amino)-4-methylpiperidin-1-yl)-3-oxopropanenitrile and HA [Example 81] | 0.28 |
